{"source": "patent US10323085B2", "about": "“Methods of treating fibromyalgia” (Teva Pharmaceuticals International GmbH, priority 2008, dated 2019)", "molecules": {"B1": {"name": "G2: anti-rat CGRP mouse monoclonal antibody (Wong H C et al. Hybridoma 1993); variable regions SEQ ID Nos. 19 and 20; murine tool (antibody, V domains shown)", "VH": "EVQLQQSGPELVKPGASVKMSCKASGYTFTSSVMHWVKQKPGQGLEWIGYINPYNDGTKYNEKFKGKATLTSDKSSSTAYMELSSLTSEDSAVYYCAKGGNDGYWGQGTTLTVSS", "VL": "EIVLTQSPTTMAASPGEKITITCSASSSISSIYLHWYQQKPGFSPKVLIYRASNLASGVPARFSGSGSGTSYSLTIGTMEAEDVATYYCQQGSTIPFTFGSGTKLEIK", "modifications": "Synthetic polypeptide, Antibody G2 heavy chain variable region; Synthetic polypeptide, Antibody G2 light chain variable region", "notes": "anti-rat CGRP mouse monoclonal antibody (Wong H C et al. Hybridoma 1993); murine tool"}}, "key": {"[1]": {"test_system": "CGRP1-receptor in SK-N-MC cells", "test": "Binding assay: blocking human α-CGRP from binding to the CGRP1-receptor in SK-N-MC cells", "conditions": "FIG. 4"}, "[2]": {"biological_target": "T1, adrenomedullin (Homo sapiens, UniProt P35318)", "T1 sequence (P35318 95-146 limits assumed)": "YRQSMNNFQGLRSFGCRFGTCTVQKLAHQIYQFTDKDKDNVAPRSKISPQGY", "test": "Solution competition by Biacore (specificity)", "format": "binding", "conditions": "pre-incubated with an excess of adrenomedullin", "description": "(§1) We determined the specificity of antibody G1 to human or rat CGRP by using the Biacore chip to “probe” the free concentration of a premixed complex of mAb+peptide."}, "[3]": {"biological_target": "T2, amylin (Homo sapiens, UniProt P10997)", "T2 sequence (P10997 34-70 limits assumed)": "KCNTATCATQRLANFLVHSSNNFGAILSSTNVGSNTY", "test": "Solution competition by Biacore (specificity)", "format": "binding", "conditions": "pre-incubated with an excess of amylin", "description": "as §1"}, "[4]": {"biological_target": "T3, calcitonin (Homo sapiens, UniProt P01258)", "T3 sequence (P01258 85-116 limits assumed)": "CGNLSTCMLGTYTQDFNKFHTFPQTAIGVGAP", "test": "Solution competition by Biacore (specificity)", "format": "binding", "conditions": "pre-incubated with an excess of calcitonin", "description": "as §1"}, "[5]": {"test_system": "human CGRP", "test": "Solution competition by Biacore (specificity)", "format": "binding", "conditions": "pre-incubated with human CGRP", "description": "as §1"}, "[6]": {"test_system": "rat CGRP", "test": "Solution competition by Biacore (specificity)", "format": "binding", "conditions": "pre-incubated with rat CGRP", "description": "as §1"}, "[7]": {"biological_target": "T4, 25-37 human α-CGRP fragment (Homo sapiens, UniProt P06881)", "T4 construct": "(CGRP 25-37)", "test": "Alanine scan of C-terminal CGRP fragment (CGRP 25-37) by Biacore, epitope identification", "format": "binding", "conditions": "25° C., Biacore 3000", "protocol": "Interaction analysis was conducted at 25° C. on a Biacore 3000™ system equipped with streptavidin-coated (SA) sensor chips (Biacore AB, Uppsala, Sweden) using a standard Biacore running buffer (HBS-P). […] Each amino acid between position 27-37 was then mutated individually to alanine and expressed the fold loss in affinity compared to the wild-type fragment. N-biotinylated fragments were captured on individual flow cells at low levels (typically 100 response units) to provide the reaction surfaces, while an unmodified flow cell served as a reference channel. Purified Fab fragments of antibody G1 were generated. Fab fragments were titrated over the chip using 1 μM as the top concentration of a two-fold dilution series. Association and dissociation phases were monitored at 100 μl/min for 1 minute and 5 minutes respectively. Surfaces were regenerated with a mixture of 35% ethanol+25 mM NaOH+0.5M NaCl."}, "[8]": {"test_system": "rats", "test": "Indicators of physical or psychological dependence, long term observation of dosed animals", "conditions": "rat, in vivo"}, "[9]": {"test_system": "CGRP", "test": "Neurogenic skin flare rat model (saphenous nerve stimulation, laser Doppler blood flow)", "format": "in vivo", "conditions": "for start of significant decrease in blood flow response post dose: intravenous; for development of neurogenic flare in vivo: rat", "protocol": "Using a neurogenic skin flare rat model the efficacy of G1 was tested for its ability to block CGRP effect in vivo. The saphenous nerve in the rat is electrically stimulated causing CGRP release from nerve endings and leading to vasodilation, the resulting changes in blood flow can be measured using laser Dopler methods.\nChanges in blood flow parameters were expressed as the area under the curve (AUC, change in arbitrary Doppler flux units multiplied by time). CGRP receptor antagonist CGRP8-37 (400 nmol/kg, i.v.) was used as a positive control to validate the specificity of the model (data not shown). To determine the effect of G1 prior to dosing for each animal, the baseline blood flow response to stimulation was established with two saphenous nerve stimulations each 30 minutes apart. Rats were treated with G1 after the blood flow response of the second stimulation had returned to baseline levels (approximately 10 minutes post stimulation) and an additional four stimulations at 30 minute intervals were performed."}, "[10]": {"test_system": "MRMT-1 injected rats", "test": "Bone cancer pain model (MRMT-1), mechanical hypersensitivity to von Frey stimuli", "format": "in vivo, rat", "conditions": "IV 10 mg/kg at day 9", "protocol": "Tumour cells used are syngeneic MRMT-1 rat mammary gland carcinoma cells donated from the Novartis Institute (London). The cells are cultured in RPMI 1640 (Gibco) with 10% foetal bovine serum (FCS), 1% L-glutamine 2% penicillin/streptomycin (Gibco). Two brief washes are carried out with 0.1% w/v trypsin to release those cells which adhere to the flask, and then quenched with an equal volume of 10% FCS, followed by centrifugation of the solution for 3 minutes at 1200 rpm. The pellet is washed and resuspended in Hanks medium, and the concentration of cells calculated using a Haemocytometer, with trypan blue staining to determine the number of dead MRMT-1 cells. The final concentration of 3×10^3 cells was then obtained by diluting the solution according to the number of cells seen. The final solution was kept on ice until time of injection.\nMale Sprague-Dawley rats weighing close to 170 g at time of surgery were used to generate the cancer model. Anaesthesia was induced in the rats using halothane or isoflurane (1.5-2%) 66% N2O and 33% O2, the leg was shaved over the appropriate area and disinfected with chlorhexidine (Animalcare Ltd, UK.). A small incision in order to expose the anterior-medial surface of the distal end of the tibia was made. A hole was bored in the periosteum using a 0.7 mm dental drill, through which a 2 cm polythene tubing was fed 1 cm into the intra-medullar cavity of the tibia. Using a Hamilton syringe the pre-prepared 10 μl of 3×10^3 MRMT-1 cells were injected through the tubing into the cavity. The tubing was then removed and the hole plugged using bone restorative material (IRM, Dentsply USA). The wound was then irrigated with 0.9% saline and closed with a metal clip. The sham animals were operated upon using the same procedure but injected with 10 μl of Hank's solution alone. The animals were placed in a thermoregulated recovery box until such time that they were able to be placed back in their housing cages.\nTesting behaviour towards mechanical stimuli uses von Frey filaments (North Coast Medical Inc., USA) to the plantar surface of both the ipsilateral and contralateral hindpaw. The rats were placed in a Perspex cubicle with a mesh floor and allowed to acclimatise for 10 minutes. Each von Frey was applied 10 times to each hindpaw alternating between the ipsilateral and contralateral, for duration of 2-3 seconds each time. […] A nocifensive response (a lift) is defined as a brisk withdrawal of the hindpaw and the number of lifts for each paw at each von Frey are recorded (maximum of 10) and expressed as a percentage response. An assessment of the efficacy of rodent anti-CGRP antibody G2 in attenuating hypersensitivity to a wide variety of static mechanical, cooling and integrated stimuli was carried out as well as the background basal pain behaviours in this validated model of cancer induced bone pain. The responses measured are attenuated by standard analgesic treatments such as morphine and gabapentin. All measures were made by the same scientist in a blind fashion—blinded to the identity of the compound/control and to the treatment of the animal.\nG2-was given IV at 10 mg/kg at day 9 and rats were tested at 2 hrs and then on days 10, 11, 12 and then 14-18 days post treatment (FIG. 1)."}, "[11]": {"test_system": "MRMT-1 injected rats", "test": "Rota rod test for motor impairment in the bone cancer pain model", "format": "in vivo, rat", "conditions": "MRMT-1 injected rats treated at day 9 post surgery", "description": "A further end point tested in the bone cancer pain model was ambulation (by rotarod). The test is to obtain a measurement of locomotor impairment comparing antibody treated with control animals, each subjected to the same test under the same conditions. The rota rod test consists of 4 rotateable drums divided by flanges with a motor-driven drum accelerated (Ugo Basile, Comerio, VA, Italy). For a given trial, a rat is placed on the rotating rod and the rotation speed is accelerated from 4 to 16 rpm in 2 min. The time of maximal performance is typically set at 120 sec. Each animal generally receives three trials per day, at 1 hr intervals, for several consecutive days post-surgery. The latency to fall off the rod is represented as mean of the three trials."}}}
{"molecule": "G1: humanized IgG2Δa monoclonal anti-CGRP antagonist antibody from expression vectors ATCC PTA-6867 and PTA-6866; variable regions SEQ ID Nos. 1 and 2", "values": [{"measurement": "inhibition of binding of α-CGRP to the CGRP1 receptor", "setting": "[1]", "value": "inhibits the binding"}, {"measurement": "complex formation with peptide", "setting": "[2]", "value": "did not form a complex"}, {"measurement": "complex formation with peptide", "setting": "[3]", "value": "did not form a complex"}, {"measurement": "complex formation with peptide", "setting": "[4]", "value": "did not form a complex"}, {"measurement": "Biacore response after pre-incubation with peptide", "setting": "[5]", "value": "fully blocked"}, {"measurement": "Biacore response after pre-incubation with peptide", "setting": "[6]", "value": "fully blocked"}, {"measurement": "affinity of N-biotinylated 25-37 human α-CGRP fragment compared with full-length N-biotinylated human α-CGRP", "setting": "[7]", "value": "same affinity"}, {"measurement": "CNS penetration", "setting": "[8]", "value": "Neither antibody G1 nor antibody G2 demonstrate CNS penetration"}, {"measurement": "start of significant decrease in blood flow response post dose", "setting": "[9]; 1 mg/kg", "value": 120, "unit": "min"}, {"measurement": "start of significant decrease in blood flow response post dose", "setting": "[9]; 10 mg/kg", "value": 90, "unit": "min"}, {"measurement": "inhibits neurogenic flare in the skin starting from, post-treatment", "setting": "[9]; FIG. 9, intravenous administration", "value": 90, "unit": "min"}, {"measurement": "development of neurogenic flare in vivo", "setting": "[9]", "value": "prevent the development of neurogenic flare"}]}
{"molecule": "B1", "values": [{"measurement": "hypersensitivity to von Frey 15 g vs vehicle treated group", "setting": "[10]; 2 and 3 days after drug administration", "value": "significance seen"}, {"measurement": "hypersensitivity to von Frey 15 g vs vehicle treated group", "setting": "[10]; 2 hours post-injection", "value": "reduction in hypersensitivity"}, {"measurement": "hypersensitivity to von Frey 15 g vs vehicle treated group", "setting": "[10]; 6 days after G2 administration", "value": "reductions were lost"}, {"measurement": "Withdrawal frequencies to von Frey 8 g vs vehicle treated group", "setting": "[10]; day 14 (day 5 post-G2 injection)", "value": "no discernible difference"}, {"measurement": "Withdrawal frequencies to von Frey 8 g vs vehicle treated group", "setting": "[10]; days 11 and 12 (days 2 and 3 after injection)", "value": "significantly reduced"}, {"measurement": "Withdrawal frequencies to von Frey 8 g", "setting": "[10]; two hours after injection", "value": "reduced"}, {"measurement": "latency to fall from the rotarod during forced ambulation vs vehicle group", "setting": "[11]", "value": "No differences were found"}, {"measurement": "CNS penetration", "setting": "[8]", "value": "Neither antibody G1 nor antibody G2 demonstrate CNS penetration"}, {"measurement": "development of neurogenic flare in vivo", "setting": "[9]", "value": "prevent the development of neurogenic flare"}]}
